{"source": "paper PMC8812563", "about": "(Proceedings of the National Academy of Sciences of the …, 2022)", "binders": {"B1": {"name": "ANGUSTIFOLIA3 / GRF-INTERACTING FACTOR 1 with GS^yellow tag (35S::AN3-GS^yellow) (natural protein, Arabidopsis thaliana, UniProt Q8L8A5 1-210, looked up)", "chain": "MQQHLMQMQPMMAGYYPSNVTSDHIQQYLDENKSLILKIVESQNSGKLSECAENQARLQRNLMYLAAIADSQPQPPSVHSQYGSAGGGMIQGEGGSHYLQQQQATQQQQMTQQSLMAARSSMLYAQQQQQQQPYATLQHQQLHHSQLGMSSSSGGGGSSGLHILQGEAGGFHDFGRGKPEMGSGGGGEGRGGSSGDGGETLYLKSSDDGN"}}, "biological_target": "T1, PHYTOCHROME-INTERACTING FACTOR 7 with Flash tag (35S::PIF7-Flash; 9xMyc-6xHis-3xFlag) (Arabidopsis thaliana, UniProt Q570R7 1-366)", "T1 sequence (looked up)": "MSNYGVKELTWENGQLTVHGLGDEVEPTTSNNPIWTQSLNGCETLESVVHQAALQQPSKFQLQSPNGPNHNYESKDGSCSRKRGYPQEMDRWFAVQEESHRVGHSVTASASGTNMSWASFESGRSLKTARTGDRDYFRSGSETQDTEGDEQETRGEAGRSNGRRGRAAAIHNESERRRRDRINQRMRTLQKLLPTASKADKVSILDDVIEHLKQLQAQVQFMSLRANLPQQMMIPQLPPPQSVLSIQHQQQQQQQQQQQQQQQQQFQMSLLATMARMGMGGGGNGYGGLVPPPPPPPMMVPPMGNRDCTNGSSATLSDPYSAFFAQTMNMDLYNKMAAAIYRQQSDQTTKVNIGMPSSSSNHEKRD", "assay": "co-IP"}
{"binder": "B1", "values": [{"measurement": "binding result", "value": "binds"}]}
